The values that follow come from article PMC3830196, “Calmodulin-like protein AtCML3 mediates dimerization of peroxisomal processing protease AtDEG15 and contributes to normal peroxisome metabolism” (Plant Molecular Biology, 2013).

In this assay the target is T1, AtDEG15 full length (yeast two-hybrid / three-hybrid fusion) (Arabidopsis thaliana, UniProt Q8VZD4 1-709).
T1 construct: AtDEG15, peroxisomal DEG protease of Arabidopsis thaliana (At1g28320); full-length coding region; Cloned both into pBridge and pGAD424; in the Y3H the full length stood in pBridge; also called AtDEG15_pBridge; AtDEG15_pGAD424; source: yeast two-hybrid fusion (S. cerevisiae AH109)
The assay is described as follows: two-hybrid; Matchmaker GAL4 system, fusions in pBridge (DNA-binding domain) and pGAD424 (activation domain), S. cerevisiae AH109; HIS3 reporter (growth on His-free medium) and lacZ reporter (beta-galactosidase, Miller units). The settings on record: partners not purified.

B1: AtCML3 full length (yeast two-hybrid fusion) (natural protein, Arabidopsis thaliana, UniProt Q9SRR7 1-153, looked up)
chain: MDQAELARIFQMFDRNGDGKITKQELNDSLENLGIYIPDKDLVQMIEKIDLNGDGYVDIEEFGGLYQTIMEERDEEEDMREAFNVFDQNRDGFITVEELRSVLASLGLKQGRTLEDCKRMISKVDVDGDGMVNFKEFKQMMKGGGFAALGSNL
notes: AtCML3, calmodulin-like protein of Arabidopsis thaliana (At3g07490); full-length coding region; Cloned both into pBridge and pGAD424; also called AtCML3_pGAD424; AtCML3_pBridge; source: yeast two-hybrid fusion (S. cerevisiae AH109)
As to B1, the “beta-galactosidase activity, fold over the negative controls” value came out at 20 fold.
